In paper PMC9884297, “Iron-sulfur clusters are involved in post-translational arginylation” (Nature Communications, 2023):

Target: the molecule itself
Test: SEC; 120 mL gel filtration column, 25 mmol/L Tris pH 7.5, 100 mmol/L NaCl, 1 mmol/L TCEP, 0.35 mol/L glycerol; apparent oligomeric state

B1: Arg tRNA synthetase from E. coli (strain K12) (enzyme, UniProt P11875 1-577, looked up)
chain: MNIQALLSEKVRQAMIAAGAPADCEPQVRQSAKVQFGDYQANGMMAVAKKLGMAPRQLAEQVLTHLDLNGIASKVEIAGPGFINIFLDPAFLAEHVQQALASDRLGVATPEKQTIVVDYSAPNVAKEMHVGHLRSTIIGDAAVRTLEFLGHKVIRANHVGDWGTQFGMLIAWLEKQQQENAGEMELADLEGFYRDAKKHYDEDEEFAERARNYVVKLQSGDEYFREMWRKLVDITMTQNQITYDRLNVTLTRDDVMGESLYNPMLPGIVADLKAKGLAVESEGATVVFLDEFKNKEGEPMGVIIQKKDGGYLYTTTDIACAKYRYETLHADRVLYYIDSRQHQHLMQAWAIVRKAGYVPESVPLEHHMFGMMLGKDGKPFKTRAGGTVKLADLLDEALERARRLVAEKNPDMPADELEKLANAVGIGAVKYADLSKNRTTDYIFDWDNMLAFEGNTAPYMQYAYTRVLSVFRKAEIDEEQLAAAPVIIREDREAQLAARLLQFEETLTVVAREGTPHVMCAYLYDLAGLFSGFYEHCPILSAENEEVRNSRLKLAQLTAKTLKLGLDTLGIETVERM
notes: Arg tRNA synthetase, E. coli strain K12, UniProt P11875; A TEV-protease cleavage site (ENLYFQS) lies between the protein and the C-terminal (His)6 tag (pET-21a(+), NdeI/XhoI); also called EcArgRS; ArgRS
  stoichiometry N: 6
